The supplement of paper PMC9170038

Assays:
[1] = system: MS2 coat protein; assay: apparent KD of MS2 coat protein, switch OFF state (with FMN for OFF switches, without FMN for ON switches); designed switch direction (-1 OFF switch, 1 ON switch): -1; higher = weaker reporter binding; conditions: FMN input: 0 or 200 uM; Eterna round: R93 (includes R88 designs)
Procedure, shortened: (§1)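 Designed RNA switches were transcribed on-chip from Illumina sequencing clusters. They were then titrated with SNAP-549-labelled MS2 coat protein (twofold steps, 0.7 or 1.5 nM to 3 µM; 0.8–1.5 h to 10–20 min per step) in 100 mM Tris-HCl pH 7.5, 80 mM KCl, 4 mM MgCl2, without or with constant ligand. Apparent KD is the per-design median of normalised cluster binding-curve fits.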

[2] = system: MS2 coat protein; assay: apparent KD of MS2 coat protein, switch ON state; designed switch direction (-1 OFF switch, 1 ON switch): -1; higher = weaker reporter binding; conditions: FMN input: 0 or 200 uM; Eterna round: R93 (includes R88 designs)
Procedure, shortened: as §1

Row | Sequence | apparent KD of MS2 coat protein [1] [nM] | apparent KD of MS2 coat protein [2] [nM]
1 | AAAAAGGUAGGAUAUACGAAAAAAAAGGGUAGAAAAAAAACACAUGAGGAUCACCCAUGUAGAAGGACCAAAAA [Ex 2 sub 1] | 77.4 | 26.3
2 | AAAAAGUAAGGAUAUGCGAAUAAAUAAGAAGAAGAAAGAAAGCAGAAGGUACAUGAGGAUCACCCAUGUAAAAA [Ex 4 Tesla 1] | 22.5 | 36.3
3 | AAAAAGUCAGGAUAUAGCAAAGGUCACGAAAGUGACAAAGGCUAGAAGGGACAUGAGGAUCACCCAUGUAAAAA [Fiskers Exclusion 4 D2] | 38.8 | 53
4 | AAAAAGUCAGGAUAUCGGAAAAAAAAAAAAAAAAAAAAAAACGAGAAGGGACAUGAGGAUCACCCAUGUAUGAC [Ex 4 May 7] | 243 | 56.9
5 | AAAAAGUCAGGAUAUGCAGAUAAAAAAACGAAAAAAAAUCUGCAGAAGGGACAUGAGGAUCACCCAUGUAAAAA [Ex 4 May 5] | 40.4 | 48.5
6 | AAAAAGUCAGGAUAUGCGAAGGCGUCUGAUAGACGAGGCUAGCAGAAGGGACAUGAGGAUCACCCAUGUGGAAG [Mat - Exclusion 4 - Eli mod - D89] | 121 | 81.3
7 | AAAAAGUCAGGAUAUGUCAAAGGUCACGAAAGUGACAAAGGACAGAAGGGACAUGAGGAUCACCCAUGUGGAAA [Fiskers Exclusion 4D1 65% - Late G segment 1] | 115 | 82
8 | AAAAAGUGAGGAUAUACGCUGUGGAGUAGACACAACCAGUCGUAGAAGGCACAUGAGGAUCACCCAUGUCCAAA [EX4 Malc#19] | 49.6 | 22
9 | AAAAAGUGAGGAUAUGUCAAAAGUCACAAAAGUGACAAAAGACAGAAGGCACAUGAGGAUCACCCAUGUGAAAA [Mod of Eli - Late G + early G segment 3] | 38.8 | 26.8
10 | AAAAAGUUAGGAUAUACAUGAGGAUCACCCAUGUACAUAUAUGGAGAAUAUAGUAGUAGUAGAAGGGACAAAAA [EX2 Malc#14] | 26.9 | 21
11 | AAAAAUGCAGGAUAUACGUACAUGUCAAAAGACGUGAAGGGACAUGAGGAUCACCCAUGUAGAAGGGUAAAGAA [JL Neck Breaker 15] | 59.8 | 237
12 | AAAAAUGGAGGAUAUACAUGAGGAUCACCCAUGUGUAACAAAACAAAACACAAAAAAAGUAGAAGGCCAAAAAA [Gilly Gone Silly 5 - Jieux - Exclusion 3] | 20.4 | 19.2
13 | AAAAAUUGAGGAUAUACGAACAUGUCGAAAGACGUGAAGGGACAUGAGGAUCACCCAUGUAGAAGGCGAAAAAA [Mat - Exclusion 2 - JL mod - D68] | 20.7 | 33.7
14 | AAAACGGUAGGAUAUACGAAAAAAAAGGGAGAACAAAAGGGACAUGAGGAUCACCCAUGUAGAAGGACCAAAAA [Diamond 89] | 84.7 | 40.6
15 | AAAACGGUAGGAUAUACGAUUGGGAACUAGACCGAGAAACCACAUGAGGAUCACCCAUGUAGAAGGGCCAAAAA [Ex2 Malc#13] | 36.2 | 31.1
16 | AAAAGACAUGAGGAUCACCCAUGUGAGGAUAUGCGAAAAAAAAAAAUAAAAAAAAAAAGUAGAAGGCACACCAA [Mat - Exclusion 1 - Eli mod - D56] | 248 | 177
17 | AAAAGACAUGAGGAUCACCCAUGUUAGGAUAUGGAAAAACAAAAAAAAAAAAAAAAAACCAGAAGGAGCGAGGG [another 1 four] | 132 | 190
18 | AAAAGCACAGGAUAUACAUAAUUAUGACGAAAGUCAUAAAAACAUGAGGAUCACCCAUGUAGAAGGGUGCAAAA [Mod of Meechl's... 64% 1] | 37.8 | 118
19 | AAAAGCACAGGAUAUACGGGAUUAUGACGAAAGUCAUAAAAACAUGAGGAUCACCCAUGUAGAAGGGUGCAAAA [Mod of Meechl's... 64% 2] | 248 | 191
20 | AAAAUACAUGAGGAUCACCCAUGUGAGGAUAUGCUAUGGAAAAUAAAAAUAAAACAUAGCAGAAGGCACAAAAA [Denovo 13] | 56.7 | 37
21 | AAAAUGAAAGGAUAUACAUGAGGAUCACCCAUGUUCCAGAACAGGAGUACAAGCGAGUGUAGAAGGUUCAGCAA [Ercesois] | 42.7 | 22.3
22 | AAACCACAUGAGGAUCACCCAUGUCAGGAUAUGAACGAAAAUAAAUAAAAAUAAAAGUUCAGAAGGGACGAAAA [66%, Wbt, 15] | 37.2 | 39.2
23 | AAACGUUGAGGAUAUACAGAAGGGUAUAAAUCAUAAAAAACACAUGAGGAUCACCCAUGUAGAAGGCAACGAAA | 46.8 | 97.9
24 | AAACUACUAGGAUAUGCAGAAAGGGUGUAUCCUUAAACUCCACAUGAGGAUCACCCAUGUAGAAGGAGUAAUCG [Dilaquis] | 46.4 | 32.4
25 | AAAGGACGAGGAUAUACAUGAGGAUCACCCAUGUAAAGGGCAUAAUAAAAGAACUUAUGUAGAAGGCGUCCAAA [69%, Moding Meechl, 6] | 15.6 | 79.1
26 | AAAGGAUCAGGAUAUGUGUGGAAAAAGUGUAUCCGAAAAAAACAUGAGGAUCACCCAUGUAGAAGGGAUCCAAA [Mod 3 of Normal (20/19) by Nando, Round 1] | 464 | 182
27 | AAAGGCUUAGGAUAUACAGUGGUCCCAAUGGGCAUCCGAAAACAUGAGGAUCACCCAUGUAGAAGGAAGAAAAU [Raleor] | 64.7 | 68.5
28 | AAAUAGCAAGGAUAUACAUGAGGAUCACCCAUGUAAGGAUGGAAAGUAAUAGAAGAAAGUAGAAGGUGCAAAUA [Ex 3 Tesla 4] | 36 | 31.7
29 | AAAUAGCAAGGAUAUACAUGAGGAUCACCCAUGUGAAAAAGGUAUGGAAUAGAAUAGAGUAGAAGGUGCAAAUA [Mod of Ex 3 Tesla 8 - Jieux - Exclusion 3] | 35.7 | 24.9
30 | AAAUAGCAAGGAUAUACAUGAGGAUCACCCAUGUGAAAAUGAUACGUAAUAGAAUAGAGUAGAAGGUGCAAAUA [Ex 3 Tesla 7] | 28.7 | 25.1
